The target in this assay is T1, NPHP3, human full length, yeast two-hybrid prey (human, UniProt Q7Z494 1-1330).
T1 sequence (looked up): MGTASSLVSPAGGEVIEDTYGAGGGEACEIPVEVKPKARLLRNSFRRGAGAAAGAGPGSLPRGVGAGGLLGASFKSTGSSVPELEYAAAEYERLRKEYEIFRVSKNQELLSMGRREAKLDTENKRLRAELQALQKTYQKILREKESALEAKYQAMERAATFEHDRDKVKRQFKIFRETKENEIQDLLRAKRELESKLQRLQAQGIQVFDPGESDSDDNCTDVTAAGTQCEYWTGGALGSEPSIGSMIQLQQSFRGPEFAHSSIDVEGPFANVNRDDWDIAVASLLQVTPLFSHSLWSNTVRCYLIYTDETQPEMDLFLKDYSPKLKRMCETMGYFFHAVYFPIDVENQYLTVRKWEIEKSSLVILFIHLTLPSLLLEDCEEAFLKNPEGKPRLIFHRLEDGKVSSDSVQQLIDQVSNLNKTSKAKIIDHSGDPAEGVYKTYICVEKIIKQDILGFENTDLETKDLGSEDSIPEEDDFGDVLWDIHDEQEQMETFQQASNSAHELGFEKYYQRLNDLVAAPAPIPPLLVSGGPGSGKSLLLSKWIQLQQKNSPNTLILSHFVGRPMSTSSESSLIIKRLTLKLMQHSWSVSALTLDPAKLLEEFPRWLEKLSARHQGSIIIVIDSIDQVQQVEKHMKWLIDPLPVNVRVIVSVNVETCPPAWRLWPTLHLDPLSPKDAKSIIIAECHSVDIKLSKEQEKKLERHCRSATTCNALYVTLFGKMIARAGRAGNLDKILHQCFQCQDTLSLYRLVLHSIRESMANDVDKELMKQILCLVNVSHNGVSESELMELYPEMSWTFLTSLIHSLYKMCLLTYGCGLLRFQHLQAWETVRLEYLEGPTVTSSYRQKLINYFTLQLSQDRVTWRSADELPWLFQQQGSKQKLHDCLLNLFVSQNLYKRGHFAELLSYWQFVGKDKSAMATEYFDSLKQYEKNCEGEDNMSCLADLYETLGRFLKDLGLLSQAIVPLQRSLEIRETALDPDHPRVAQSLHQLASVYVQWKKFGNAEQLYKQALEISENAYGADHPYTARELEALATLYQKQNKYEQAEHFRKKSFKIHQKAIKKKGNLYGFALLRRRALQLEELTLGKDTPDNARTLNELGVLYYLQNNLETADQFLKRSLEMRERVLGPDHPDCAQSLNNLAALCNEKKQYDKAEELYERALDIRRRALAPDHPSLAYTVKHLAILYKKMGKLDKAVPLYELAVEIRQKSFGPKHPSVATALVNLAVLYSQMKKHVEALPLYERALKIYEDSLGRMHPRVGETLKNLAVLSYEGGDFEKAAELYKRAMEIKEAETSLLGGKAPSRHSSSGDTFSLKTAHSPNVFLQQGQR
Nature of the assay: direct yeast two-hybrid assay.

B1: full-length human nephrocystin-5 (NPHP5), yeast two-hybrid fusion (other, not shown: small tags and cut ends)
chain: MKPTGTDPRILSIAAEVAKSPEQNVPVILLKLKEIINITPLGSSELKKIKQDIYCYDLIQYCLLVLSQDYSRIQGGWTTISQLTQILSHCCVGLEPGEDAEEFYNELLPSAAENFLVLGRQLQTCFINAAKAEEKDELLHFFQIVTDSLFWLLGGHVELIQNVLQSDHFLHLLQADNVQIGSAVMMMLQNILQINSGDLLRIGRKALYSILDEVIFKLFSTPSPVIRSTATKLLLLMAESHQEILILLRQSTCYKGLRRLLSKQETGTEFSQELRQLVGLLSPMVYQEVEEQKLHQAACLIQAYWKGFQTRKRLKKLPSAVIALQRSFRSKRSKMLLEINRQKEEEDLKLQLQLQRQRAMRLSRELQLSMLEIVHPGQVEKHYREMEEKSALNIQKHWRGYRERKNFHQQRQSLIEYKAAVTLQRAALKFLAKCRKKKKLFAPWRGLQELTDARRVELKKRVDDYVRRHLGSPMSDVVSRELHAQAQERLQHYFMGRALEERAQQHREALIAQISTNVEQLMKAPSLKEAEGKEPELFLSRSRPVAAKAKQAHLTTLKHIQAPWWKKLGEESGDEIDVPKDELSIELENLFIGGTKPP
notes: Full-length NPHP5 cDNA (598 amino acid residues) fused to a GAL4 domain; also called KIAA0036
Consider B1, for which the binding result is reported as “no binding”.

The values above are taken from US7838231 (REGENTS OF THE UNIVERSITY OF MICHIGAN, dated 2010).
